For the data set, the target named is NTH-RNase E D346N (Escherichia coli (K12, P21513-1 in …, UniProt P21513 1-529, D346N)). Nature of the data set: EMSA; 15 mM CaCl2; 25 mM bis-Tris propane pH 8.3, 100 mM KCl, 15 mM CaCl2, 0.1% (v/v) Triton X-100, 1 mM DTT, 20% (v/v) glycerol, 37 C 20 min; 1% agarose gel in 1x TBE. Conditions: protein: recombinant; tags: N-terminal oligohistidine; chain copies: 4; single-stranded. (In general: A gel shift assay detects complexes by their altered migration in electrophoresis.)

The term Kd denotes the constant that tells how readily two partners part at equilibrium. Regarding GAGACAGUAUUUG (ssRNA, 5'-monophosphate) [5'-monophosphorylated LU13], the Kd was found to be 56 nM.

Source of the values: article PMC9841416, “The recognition of structured elements by a conserved groove distant from domains associated with catalysis is an essential determinant of RNase E”.
